Laboratory results published in the RNAGym collection of RNA variant scans (doi:10.1093/molbev/msab373).

B1: Azoarcus group I ribozyme (parent)
chain: GUGCCUUGCGCCGGGAAACCACGCAAGGGAUGGUGUCAAAUUCGGCGAAACCUAAGCGCCCGCCCGGGCGUAUGGCAACGCCGAGCCAAGCUUCGGCGCCUGCGCCGAUGAAGGUGUAGAGACUAGACGGCACCCACCUAAGGCAAACGCUAUGGUGAAGGCAUAGUCCAGGGAGUGGCGAAAGUCACACAAACCGG

Variants of: B1
Experiment: reverse-splicing fitness (ratio to wild type); higher = more active; in vitro selection; Mg2+ level not given
How it was run: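 An in vitro group I ribozyme library with randomized positions was T7-transcribed and gel-purified. In triplicate, 10 pmol RNA in EPPS pH 7.5 was reacted with 50 pmoles of a 30-nt RNA substrate for 1 h at 37 °C across several added MgCl2 levels (1–48 mM), then stopped with EDTA. Products were reverse transcribed from a substrate-complementary primer, PCR-amplified and sequenced (HiSeq 4000). Fitness is a variant's read proportion after selection over that before, normalised to wild type.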

Variant	reverse-splicing fitness
C82A A120U C150G	0.0131
C82A A120U C150G C169A	0.00708
C82A A120U C150G C169A U176A	0.00498
C82A A120U C150G C169A U176C	0.00411
C82A A120U C150G C169A U176G	0.00312
C82A A120U C150G C169G	0.00634
C82A A120U C150G C169G U176A	0.00506
C82A A120U C150G C169G U176C	0.00251
C82A A120U C150G C169G U176G	0.00232
C82A A120U C150G C169U	0.00543
C82A A120U C150G C169U U176A	0.00325
C82A A120U C150G C169U U176C	0.00369
C82A A120U C150G C169U U176G	0.00296
C82A A120U C150G U176A	0.00566
C82A A120U C150G U176C	0.00779
C82A A120U C150G U176G	0.00281
C82A A120U C150U	0.0723
C82A A120U C150U C169A	0.00439
C82A A120U C150U C169A U176A	0.00392
C82A A120U C150U C169A U176C	0.00357
C82A A120U C150U C169A U176G	0.00226
C82A A120U C150U C169G	0.00546
C82A A120U C150U C169G U176A	0.00534
C82A A120U C150U C169G U176C	0.00363

Variant	reverse-splicing fitness
C82A A120U C150U C169G U176G	0.00165
C82A A120U C150U C169U	0.00643
C82A A120U C150U C169U U176A	0.00458
C82A A120U C150U C169U U176C	0.00368
C82A A120U C150U C169U U176G	0.00199
C82A A120U C150U U176A	0.0194
C82A A120U C150U U176C	0.0352
C82A A120U C150U U176G	0.00609
C82A A120U C169A	0.00277
C82A A120U C169A U176A	0.00254
C82A A120U C169A U176C	0.00197
C82A A120U C169A U176G	0.00137
C82A A120U C169G	0.00529
C82A A120U C169G U176A	0.00261
C82A A120U C169G U176C	0.00323
C82A A120U C169G U176G	0.00153
C82A A120U C169U	0.00613
C82A A120U C169U U176A	0.00359
C82A A120U C169U U176C	0.00453
C82A A120U C169U U176G	0.00156
C82A A120U U176A	0.0313
C82A A120U U176C	0.0627
C82A A120U U176G	0.0095
C82A A145C	0.586

Variant	reverse-splicing fitness
C82A A145C C150A	0.0312
C82A A145C C150A C169A	0.00702
C82A A145C C150A C169A U176A	0.0113
C82A A145C C150A C169A U176C	0.00566
C82A A145C C150A C169A U176G	0.00593
C82A A145C C150A C169G	0.00755
C82A A145C C150A C169G U176A	0.0232
C82A A145C C150A C169G U176C	0.0122
C82A A145C C150A C169G U176G	0.00671
C82A A145C C150A C169U	0.00913
C82A A145C C150A C169U U176A	0.015
C82A A145C C150A C169U U176C	0.00759
C82A A145C C150A C169U U176G	0.00553
C82A A145C C150A U176A	0.0316
C82A A145C C150A U176C	0.0306
C82A A145C C150A U176G	0.0123
C82A A145C C150G	0.0739
C82A A145C C150G C169A	0.00909
C82A A145C C150G C169A U176A	0.00836
C82A A145C C150G C169A U176C	0.00619
C82A A145C C150G C169A U176G	0.00669
C82A A145C C150G C169G	0.00828
C82A A145C C150G C169G U176A	0.00895
C82A A145C C150G C169G U176C	0.0067

Variant	reverse-splicing fitness
C82A A145C C150G C169G U176G	0.00508
C82A A145C C150G C169U	0.00817
C82A A145C C150G C169U U176A	0.00823
C82A A145C C150G C169U U176C	0.00749
C82A A145C C150G C169U U176G	0.00534
C82A A145C C150G U176A	0.0383
C82A A145C C150G U176C	0.0535
C82A A145C C150G U176G	0.00808
C82A A145C C150U	0.151
C82A A145C C150U C169A	0.00801
C82A A145C C150U C169A U176A	0.0106
C82A A145C C150U C169A U176C	0.00606
C82A A145C C150U C169A U176G	0.00598
C82A A145C C150U C169G	0.00747
C82A A145C C150U C169G U176A	0.0196
C82A A145C C150U C169G U176C	0.0113
C82A A145C C150U C169G U176G	0.00628
C82A A145C C150U C169U	0.0111
C82A A145C C150U C169U U176A	0.0125
C82A A145C C150U C169U U176C	0.00806
C82A A145C C150U C169U U176G	0.00481
C82A A145C C150U U176A	0.101
C82A A145C C150U U176C	0.113
C82A A145C C150U U176G	0.0335

Variant	reverse-splicing fitness
C82A A145C C169A	0.00701
C82A A145C C169A U176A	0.0087
C82A A145C C169A U176C	0.00644
C82A A145C C169A U176G	0.00487
C82A A145C C169G	0.0105
C82A A145C C169G U176A	0.0247
C82A A145C C169G U176C	0.0138
C82A A145C C169G U176G	0.00402
C82A A145C C169U	0.0141
C82A A145C C169U U176A	0.0128
C82A A145C C169U U176C	0.0108
C82A A145C C169U U176G	0.00467
C82A A145C U176A	0.346
C82A A145C U176C	0.44
C82A A145C U176G	0.129
C82A A145G	0.631
C82A A145G C150A	0.0995
C82A A145G C150A C169A	0.0108
C82A A145G C150A C169A U176A	0.0195
C82A A145G C150A C169A U176C	0.0221
C82A A145G C150A C169A U176G	0.00695
C82A A145G C150A C169G	0.00939
C82A A145G C150A C169G U176A	0.0164
C82A A145G C150A C169G U176C	0.0281

Variant	reverse-splicing fitness
C82A A145G C150A C169G U176G	0.0061
C82A A145G C150A C169U	0.0112
C82A A145G C150A C169U U176A	0.0138
C82A A145G C150A C169U U176C	0.0137
C82A A145G C150A C169U U176G	0.00699
C82A A145G C150A U176A	0.0679
C82A A145G C150A U176C	0.0855
C82A A145G C150A U176G	0.0222
C82A A145G C150G	0.0693
C82A A145G C150G C169A	0.00856
C82A A145G C150G C169A U176A	0.015
C82A A145G C150G C169A U176C	0.0124
C82A A145G C150G C169A U176G	0.00857
C82A A145G C150G C169G	0.00856
C82A A145G C150G C169G U176A	0.0112
C82A A145G C150G C169G U176C	0.0134
C82A A145G C150G C169G U176G	0.00659
C82A A145G C150G C169U	0.00998
C82A A145G C150G C169U U176A	0.0117
C82A A145G C150G C169U U176C	0.0136
C82A A145G C150G C169U U176G	0.00762
C82A A145G C150G U176A	0.0291
C82A A145G C150G U176C	0.0513
C82A A145G C150G U176G	0.0113

Variant	reverse-splicing fitness
C82A A145G C150U	0.544
C82A A145G C150U C169A	0.0115
C82A A145G C150U C169A U176A	0.0161
C82A A145G C150U C169A U176C	0.0166
C82A A145G C150U C169A U176G	0.00665
C82A A145G C150U C169G	0.0117
C82A A145G C150U C169G U176A	0.0138
C82A A145G C150U C169G U176C	0.02
C82A A145G C150U C169G U176G	0.00547
C82A A145G C150U C169U	0.0162
C82A A145G C150U C169U U176A	0.0129
C82A A145G C150U C169U U176C	0.0136
C82A A145G C150U C169U U176G	0.00555
C82A A145G C150U U176A	0.287
C82A A145G C150U U176C	0.363
C82A A145G C150U U176G	0.0838
C82A A145G C169A	0.0112
C82A A145G C169A U176A	0.0185
C82A A145G C169A U176C	0.0322
C82A A145G C169A U176G	0.00573
C82A A145G C169G	0.0111
C82A A145G C169G U176A	0.0218
C82A A145G C169G U176C	0.0324
